Reference: PMC5603729 (Cell Reports, 2017)

How the values were obtained:
[1] = molecular target: T1, S. cerevisiae Rrp45 (subunit of the crystallised Exo-9) (S. cerevisiae, UniProt Q05636 1-305); assay: crystal structure
T1 sequence: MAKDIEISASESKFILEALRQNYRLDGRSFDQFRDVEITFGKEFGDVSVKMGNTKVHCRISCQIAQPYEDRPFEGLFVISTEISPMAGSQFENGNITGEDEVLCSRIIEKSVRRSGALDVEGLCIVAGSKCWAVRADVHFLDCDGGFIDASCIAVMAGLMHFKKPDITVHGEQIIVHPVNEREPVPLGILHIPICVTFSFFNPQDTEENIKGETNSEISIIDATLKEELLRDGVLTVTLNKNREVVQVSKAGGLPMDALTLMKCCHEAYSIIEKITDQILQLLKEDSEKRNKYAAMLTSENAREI

[2] = molecular target: S. cerevisiae Exo-9 core complex (recombinant, untagged) (S. cerevisiae, UniProt P46948;Q12277;P25359;Q05636;P53256;P48240;P38792;Q08285;P53859); assay: MST

B1: S. cerevisiae Rrp40 (subunit of the crystallised Exo-9) (natural protein)
chain: MSTFIFPGDSFPVDPTTPVKLGPGIYCDPNTQEIRPVNTGVLHVSAKGKSGVQTAYIDYSSKRYIPSVNDFVIGVIIGTFSDSYKVSLQNFSSSVSLSYMAFPNASKKNRPTLQVGDLVYARVCTAEKELEAEIECFDSTTGRDAGFGILEDGMIIDVNLNFARQLLFNNDFPLLKVLAAHTKFEVAIGLNGKIWVKCEELSNTLACYRTIMECCQKNDTAAFKDIAKRQFKEILTVKEE
- binding result [1]: binds

B2: Mpp6^FL S184C labeled with red-maleimide (natural protein)
chain: MSANNGVTGKLSSRVMNMKFMKFGKTDDEESSNSNTPSNINSDVEPIEQKGKLFGLDDSAWDLNSYKDDLKKISGKEKKKVKRVVYKKRPNLIISNVGYSELRKPEGVISGRKTFGDNSDDSGSRKRKFDEGEQNEDEKRDAKDKEFTGSQDDGEDEYDLDKLFKDSIKKKKTNHNGKNKNRNCKK
modifications: cysteine-reactive fluorophore (red-maleimide) on the introduced cysteine 184
- Kd [2]: ~82 nM
